Broadly, the stoichiometry N is a count of units in the complex or per binding partner.

The data set deals with the molecule itself. Put plainly: SDS-PAGE without DTT (non-reducing) and western blot; purified recombinant His-USP5 or His-USP5^C195A in PBS treated with H2O2 for 10 min; SDS-PAGE with or without DTT (Fig. 5g, Supplementary Fig. S5e); western blot of H2O2-treated protein (Fig. 5k).

B1: His-USP5 (purified recombinant) (enzyme, human, UniProt P45974 1-858, looked up)
chain: MAELSEEALLSVLPTIRVPKAGDRVHKDECAFSFDTPESEGGLYICMNTFLGFGKQYVERHFNKTGQRVYLHLRRTRRPKEEDPATGTGDPPRKKPTRLAIGVEGGFDLSEEKFELDEDVKIVILPDYLEIARDGLGGLPDIVRDRVTSAVEALLSADSASRKQEVQAWDGEVRQVSKHAFSLKQLDNPARIPPCGWKCSKCDMRENLWLNLTDGSILCGRRYFDGSGGNNHAVEHYRETGYPLAVKLGTITPDGADVYSYDEDDMVLDPSLAEHLSHFGIDMLKMQKTDKTMTELEIDMNQRIGEWELIQESGVPLKPLFGPGYTGIRNLGNSCYLNSVVQVLFSIPDFQRKYVDKLEKIFQNAPTDPTQDFSTQVAKLGHGLLSGEYSKPVPESGDGERVPEQKEVQDGIAPRMFKALIGKGHPEFSTNRQQDAQEFFLHLINMVERNCRSSENPNEVFRFLVEEKIKCLATEKVKYTQRVDYIMQLPVPMDAALNKEELLEYEEKKRQAEEEKMALPELVRAQVPFSSCLEAYGAPEQVDDFWSTALQAKSVAVKTTRFASFPDYLVIQIKKFTFGLDWVPKKLDVSIEMPEELDISQLRGTGLQPGEEELPDIAPPLVTPDEPKGSLGFYGNEDEDSFCSPHFSSPTSPMLDESVIIQLVEMGFPMDACRKAVYYTGNSGAEAAMNWVMSHMDDPDFANPLILPGSSGPGSTSAAADPPPEDCVTTIVSMGFSRDQALKALRATNNSLERAVDWIFSHIDDLDAEAAMDISEGRSAADSISESVPVGPKVRDGPGKYQLFAFISHMGTSTMCGHYVCHIKKEGRWVIYNDQKVCASEKPPKDLGYIYFYQRVAS
notes: USP5; Treated with H2O2 before the dimerisation assays; also called recombinant USP5; WT USP5; source: E. coli BL21(DE3), purified (HisTrap HP, Superdex 200 increase)
As for B1, the “stoichiometry N” value came out at 2.
